{"source": "patent US20110117017A1", "about": "“PEPTIDES WITH PROPERTIES OF AN […] FOR THE ALPHA 1A […] RECEPTOR AND USES THEREOF” (priority 2006, published 2011)", "target": "T1, alpha1a adrenergic receptor (Homo sapiens, UniProt P35348)", "T1 sequence (P35348 1-466)": "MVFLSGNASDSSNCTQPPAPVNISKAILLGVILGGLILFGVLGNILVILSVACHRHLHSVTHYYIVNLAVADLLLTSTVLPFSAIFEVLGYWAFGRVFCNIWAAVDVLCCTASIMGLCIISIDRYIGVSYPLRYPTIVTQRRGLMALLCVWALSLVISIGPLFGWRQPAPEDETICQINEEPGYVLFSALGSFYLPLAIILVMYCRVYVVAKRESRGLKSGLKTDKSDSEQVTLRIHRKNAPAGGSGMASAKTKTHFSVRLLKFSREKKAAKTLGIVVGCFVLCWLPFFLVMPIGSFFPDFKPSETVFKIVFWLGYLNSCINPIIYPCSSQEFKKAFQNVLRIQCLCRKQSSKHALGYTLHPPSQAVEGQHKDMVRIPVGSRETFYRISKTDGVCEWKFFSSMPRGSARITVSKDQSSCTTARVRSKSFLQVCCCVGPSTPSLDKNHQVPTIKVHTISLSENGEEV", "assay": "hot saturation of 125I-AdTx1 on yeast membranes expressing the alpha1a adrenergic receptor", "conditions": "read-out: high-affinity specific binding (saturation) to the alpha1a adrenergic receptor; 20 μg yeast membranes, 20 h", "description": "The analysis of the saturation of the alpha1a adrenergic receptor with AdTx1 is carried out by incubating increasing concentrations of the iodinated peptide in the presence of 20 μg of membranes containing the alpha1a adrenergic receptor, for 20 h, and then measuring the radioactivity as above."}
{"molecule": "^125I-AdTx1: radiolabeled (iodinated) AdTx1 peptide (also: radioiodinated (125I), place not given here) peptide: LTCVTSKSIFGITTEDCPDGQNLCFKRRHYVVPKIYDSTRGCAATCPIPENYDSIHCCKTDKCNE", "values": [{"measurement": "Kd", "value": "800 ± 200", "unit": "pM"}]}
